Measured values from article PMC5282649, “Binding site of restriction-modification system controller protein in Mollicutes”.

What was measured:
[1] = biological target: T1, MraZ (UniProt Q7NB78 1-142); experiment: EMSA; control; 20 mM Tris-HCl pH 7.5, 100 mM KCl, 6% glycerol, 15 min at 37 °C; 20 pmol protein with 10 pmol dsDNA; 6% acrylamide gel, TB buffer pH 8.3, 10 °C, EtBr stain; conditions: protein: recombinant; chain copies: 8
T1 sequence: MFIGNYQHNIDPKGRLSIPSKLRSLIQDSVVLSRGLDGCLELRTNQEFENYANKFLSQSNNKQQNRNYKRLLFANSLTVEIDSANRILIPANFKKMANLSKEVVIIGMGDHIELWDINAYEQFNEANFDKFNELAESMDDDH

[2] = biological target: T2, HsdC (controller protein of type I RM-system) (Mycoplasma gallisepticum S6, UniProt A0A0F6CKR7 1-64); experiment: EMSA; similar or slightly weaker than PhsdC; 20 mM Tris-HCl pH 7.5, 100 mM KCl, 6% glycerol, 15 min at 37 °C; 20 pmol protein with 10 pmol dsDNA; 6% acrylamide gel, TB buffer pH 8.3, 10 °C, EtBr stain; conditions: protein: recombinant; tags: C-terminal His-tag (pETm); chain copies: 2
[3] = biological target: T2, HsdC (controller protein of type I …); experiment: EMSA titration; printed as binding constant; 20 mM Tris-HCl pH 7.5, 100 mM KCl, 6% glycerol, 15 min at 37 °C; 20 pmol protein with 10 pmol dsDNA; 6% acrylamide gel, TB buffer pH 8.3, 10 °C, EtBr stain; conditions: protein: recombinant; tags: C-terminal His-tag (pETm); chain copies: 2
[4] = biological target: T1, MraZ; experiment: EMSA; strength comparable to own site; 20 mM Tris-HCl pH 7.5, 100 mM KCl, 6% glycerol, 15 min at 37 °C; 20 pmol protein with 10 pmol dsDNA; 6% acrylamide gel, TB buffer pH 8.3, 10 °C, EtBr stain; conditions: protein: recombinant; chain copies: 8

B1: PmraZ (dsDNA)
DNA 1: AATTCAAAAGTGTTAAAAAGTGTGAGAAAGTGGGAAAAAT
DNA 2: ATTTTTCCCACTTTCTCACACTTTTTAACACTTTTGAATT
[1]
  binding result: binds

B2: PtrnM (dsDNA)
DNA 1: ATTGTTATTATATGATAATAATGTGTAACACATCGCGGGA
DNA 2: TCCCGCGATGTGTTACACATTATTATCATATAATAACAAT
[2]
  binding result: binds

B3: PclpB (dsDNA)
DNA 1: TAATAGCCTAAGTGCTAATTTTTTGTTATAATAAATCTAT
DNA 2: ATAGATTTATTATAACAAAAAATTAGCACTTAGGCTATTA
[2]
  binding result: binds

B4: PhsdC-WT (dsDNA)
DNA 1: TTATCGGCTTTGTGTTAAAATAGTGTTAACGATTTTGAAG
DNA 2: CTTCAAAATCGTTAACACTATTTTAACACAAAGCCGATAA
[3]
  Kd: ~5 nM
[4]
  binding result: binds
